From paper PMC9540345 come the findings set out here.

The assay addresses FLAG-HA epitope-tagged H3.1 (UniProt P68431). Kind of assay: proximity ligation.

Turning to “DAXX (death domain-associated protein 6) (from UniProt Q9UER7 1-740) (natural protein)”, the fold enrichment of PLA foci over empty vector control cells is 1.9 fold.
